Source: patent publication US6645501B2, “Anti-pathogen system and methods of use thereof” (Washington University, priority 1997, dated 2003)
Entries after “also recorded” stand apart in the source; their conditions may differ.

B1: TAT-Casp3MUT: catalytically inactive TAT-Casp3 with Met substituted for the active site Cys163 residue (protein)
chain: GRKKRRQRRRGYPYDVPDYACTERQANFLGKIWPGISLDNSYKMDYPEMGLCIIINNKNFHKSTGMTSRSGTDVDAANLRETFRNLKYEVRNKNDLTREEIVELMRDVSKEDHSKRSSFVCVLLSHGEEGIIFGTNGPVDLKKITNFFRGDRCRSLTGKPKLFIIQAMRGTELDCGIETSQVSQNYPIVQNLQGVDDDMACHKIPVEADFLYAYSTAPGYYSWRNSKDGSWFIQSLCAMLKQYADKLEFMHILTRVNRKVATEFESFSFDATFHAKKQIPCIVSMLTKELYFYH
modifications: left off: small tags and cut ends

Assays:
Jurkat T cells [1] = assay: FACS and confocal analysis of FITC-labeled TAT fusion proteins added to Jurkat T cells; type: cell-based; conditions: FITC-labeled protein added to media of Jurkat T cells
Experimental: To test the ability of TAT-Casp3 proteins to transduce into cells, TAT-Casp3 proteins were conjugated to fluorescein (FITC), then added directly to the media of Jurkat T cells and analyzed by Flow Cytometry (FACS) (FIGS. 9B-C). Both TAT-Casp3WT and TAT-Casp3MUT proteins rancidly transduced into ˜100% of cells, achieving maximum intracellular concentration in less than 20 min. In addition, based on the narrow peak width before and after addition of FITC labeled proteins, individual cells within the population contain near identical intracellular concentrations of TAT-Casp3-FITC protein. […] Thus, TAT-Casp3 proteins readily transduce into 100% of all cells inca rapid and concentration-dependent fashion.
The generation and transduction of TAT fusion proteins shown in FIGS. 9A-E are explained in more detail as follows: FIG. 9A. Diagram depicting HIV cleavage site sequences and domains of TAT fusion proteins. FIGS. 9B-D. FACS kinetic analysis of fluorescein (FITC) labeled TAT-Casp3WT, TAT-Casp3MUT and TAT-HIV Pr proteins added to cells at 0, 20 and 30 min. FIG. 9E. FACS dose analysis of 3, 6, and 12 nM TAT-Casp3WT-FITC protein added to cells at I hr post-addition. Note rapid, concentration-dependent transduction of all FITC labeled protein into ˜100% of cells and near identical intracellular concentration within the population as measured by FACS peak width of control vs. transduced cells.
(§1) 1. […] See Lissy, N. A., et al. (supra). […] See Ezhevsky, S. A., et al. (supra). […] See Xiang, J., et al., (supra). […] See Xiang, J., et al., (supra). […] See Ezhevsky, S. A., et al. (supra).

Jurkat T cells [2] = assay: Cytotoxicity of TAT-Casp3 on uninfected Jurkat T cells, viability by Trypan Blue exclusion; conditions: 100 nM TAT-Casp3 or 50 nM TAT-HIV Pr, uninfected Jurkat T cells, 16 hr
Experimental: In addition, the ability of TAT-Casp3 protein to induce apoptosis in cells co-transduced with TAT-HIV Pr protein was tested. Jurkat T cells were treated with 100 nM TAT-Casp3WT or TATCasp3MUT proteins alone or in combination with 50 nM TAT-HIV Pr protein and assayed for cell viability 16 hr post-treatment (FIG. 11A). […] See Salvensen, G. S., et al., Henkart, P. A., Cohen, G. M., Woo, M., et al., Enari, M. et al., Liu, X., et al. (supra).
FIG. 11A Cultures of Jurkat T cells were transduced with combinations of TAT-Casp3WT (WT), TAT-Casp3MUT (MUT) and TAT-HIV Protease (Pr) proteins for 16 hr and analyzed for cell viability. […] FIG. 11B Cultures of Jurkat T cells were co-transduced with TAT-Casp3WT (WT), TAT-Casp3MUT (MUT) proteins in combination with TAT-HIV Pr (Pr) protein and analyzed for kinetics of cell viability as indicated.
1. Cell culture-p16(−) Jurkat T cells (ATCC) were grown as described. See Lissy, N. A., et al. (supra). For in vivo substrate cleavage, 1×10^6 cells were transduced with 100 nM TAT-p16, TAT-A-p16, TAT-Casp3MUT and/or 50 nM TAT-HIV Pr proteins for 1, 5 or 8 hr as indicated and analyzed by anti-p16 (Santa Cruz) or anti-Casp3 (Pharmingen) immunoblot analysis. See Ezhevsky, S. A., et al. (supra). For cytotoxicity of TAT-Casp3 on uninfected cells, 1×10^6 cells were transduced with 100 nM TAT-Casp3WT, TAT-Casp3MUT and/or 50 nM TAT-HIV Pr proteins for 16 hr and assayed for viability by Trypan Blue exclusion and/or genomic DNA damage by TUNEL assay (Trevigen). Number of TUNEL positive cells reported as per high-powered microscopic field with four fields per experiment averaged. TAT-Casp3 activity was measured by incubation of 20 μg of whole cell lysate with 50 μM DEVD-AFC and fluorescent AFC formation measured on a FL500 microplate fluorescence reader (Bio-Tek) as described. See Xiang, J., et al., (supra). Cells were preincubated with 1 μg/ml Ritonavir (Abbott Labs) for 1 hr prior to transduction. For cytotoxicity of TAT-Casp3 on infected cells, Jurkat cultures were infected with 100 ng p24 Ag equivalent NLHX HIV-I strain for 7-14 days, assayed microscopically for cytopathic effects, then replated at 1×10^6/ml and transduced with 100 nM of TAT-Casp3WT or TAT-Casp3MUT proteins for 16 hr followed by exclusionary dye viability analysis. Infected cells were pretreated with 1 μg/ml Ritonavir for 24 hr prior to transduction with TAT-Casp3WT protein. See Xiang, J., et al., (supra). For Flow Cytometry (FACS) analysis, fluorescein (FITC) conjugated TAT fusion proteins were added to Jurkat T cell culture media and 1×10^4 cells were analyzed by FACS as described. See Ezhevsky, S. A., et al. (supra).

Jurkat T cells [3] = assay: TUNEL assay for degraded genomic DNA in transduced Jurkat T cells; type: cell-based; conditions: for TUNEL positive cells, protein transduced alone: 100 nM TAT-Casp3 or 50 nM TAT-HIV Pr
Experimental: (§2) Additionally, transduced cultures were tested for degraded genomic DNA by TUNEL assay. See Coates, P. J., Molecular methods for the identification of apoptosis in tissues. J. Histotechnology 17: 261 (1994). […] Activation of TAT-Casp3 was also assayed by its ability to cleave an artificial Caspase-3 substrate. […] See Xiang, J., et al., Bax-induced cell death may not require interleukin 1B-converting enzyme-like proteases. Proc. Natl. Acad. Sci. USA 93: 14550 (1996).
(§3) The HIV Protease activates TAT-Casp3WT protein shown in FIGS. 12A-B are explained in more detail as follows. FIG. 12A. […] Abscissa: TUNEL positive cells per high-powered microscopic field; Ctrl, control addition of PBS to cultures; error bars represent SD. FIG. 12B. […] Ctrl, control PBS addition; ocFAS crosslinking, positive control.
as §1

[4] = system: caspase-3 activity (DEVD-AFC cleavage); assay: Caspase-3 enzyme assay, cleavage of DEVD-AFC by whole cell lysate of transduced Jurkat T cells; type: cell-based; conditions: 6 hr
Experimental: as §2, §3, §1

HIV Protease = target: T1, HIV Protease (Human immunodeficiency virus type 1 group M subtype B, UniProt P04585); assay: In vivo substrate cleavage by co-transduced TAT-HIV Pr in Jurkat T cells, immunoblot; type: cell-based; conditions: 100 nM substrate, 50 nM TAT-HIV Pr, Jurkat T cells, immunoblot
T1 construct: PCR cloning the HIV Protease gene from HXB2R HIV strain; 6xHis (from the pTAT vector) (N); made in house; the purified protein was added to Jurkat T cells
Experimental: To assay for in vivo cleavage, p 16(−) Jurkat T cells were transduced with 100 nM TAT-Ap16 or control TAT-p16 protein (no HIV cleavage site) alone or in combination with 50 nM TATHIV Pr fusion protein for 5 hr and analyzed by anti-p16 immunoblot for in vivo cleavage at the HIV A proteolytic cleavage site (FIG. 10A). […] Size analysis of the cleaved TAT-A-p 16 protein was consistent with retention of the residual HIV half site present on the N′ terminus of p 16 (FIG. 10A, see lane 4 vs. 5).
Further, the TAT-Casp3MUT protein was transduced in combination with TAT-HIV Pr protein into cells (FIG. 10B).
The in vivo processing in co-transduced cells shown in FIGS. 10A and 10B is explained in more detail as follows. FIG. 10A. Cultures of p16(−) Jurkat T cells were transduced with TAT-p 16 or TAT-A-p 16 substrate proteins in combination with TATHIV Pr proteins for 5 hr and subjected to anti-p 16 immunoblot analysis. […] WCE, HepG2 whole cell lysate containing wild type endogenous p16; A-p16, cleaved TAT-A-16 product retaining the HIV half site on p16. FIG. 10B. Cultures of Jurkat T cells were transduced with TATCasp3MUT protein (TAT-“D” site-p 17 domain-“A” site-p12 domain) alone or in combination with TAT-HIV Pr (Pr) protein as indicated and immunoblotted with anti-Caspase-3 antibodies specific for the p17 domain. TAT-D-p17-A, cleaved product of TAT-Casp3 containing the N′ terminal HIV A half site.
as §1

[5] = system: Jurkat T cells infected with the NLHX strain of HIV-I; assay: Cytotoxicity of TAT-Casp3 on HIV infected Jurkat cultures, exclusionary dye viability analysis; type: cell-based; conditions: 100 nM, 16 hr, cultures approximately 50% HIV positive
Text: To make this determination, Jurkat T cells were infected for 7-14 days with the NLHX strain of HIV-I and examined microscopically for HIV cytopathic effects. See Westervelt, P., et al., Identification of a determinant within the HIV-1 surface envelope glycoprotein critical for productive infection of cultured primary monocytes. Proc. Natl. Acad. Sci USA 88: 3097 (1991). At the start of each transduction experiment approximately 50% of the culture was HIV positive. HIV infected cultures were transduced for 16 hr with 100 nM TAT-Casp3WT or TATCasp3MUT protein and then assayed for cell viability (FIG. 13). […] In addition, we detected both the appearance of cells containing <2N DNA content and cells with condensed nuclei in TAT-Casp3 treated cells.
To determine if TAT-Casp3WT induced apoptosis was dependent on active HIV Protease in the infected cultures, HIV infected cultures were pretreated with 1 μg/ml Ritonavir prior to transduction with 100 nM TAT-Casp3WT protein (FIG. 5). […] In addition, the observed increased survival of Ritonavir treated cells is consistent with increased longevity of protease inhibitor treated HIV infected cells. See Coffin, J. M., et al. (supra).
The specific killing of HIV infected cells shown in FIG. 5 is explained in more detail as follows. Jurkat T cells were infected for 7-14 days with HIV strain NLHX, then transduced with TAT-Casp3WT (WT) or TAT-Casp3MUT (MUT) proteins for 16 hr and assayed for cell viability. […] Ctrl, control addition of PBS to cultures; abscissa, % viability of HIV positive cells in the population at start of transduction; error bars represent SD.
as §1

Molecule | cells transduced (Jurkat T cells [1]) | cytotoxicity when transduced alone (Jurkat T cells [2]) | TUNEL positive cells, protein transduced alone (Jurkat T cells [3]) | caspase activity, protein transduced alone [4] | cleavage at the HIV cleavage site when co-transduced with TAT-HIV Pr (HIV Protease) | TUNEL positive cells, co-transduced with TAT-HIV Pr (Jurkat T cells [3]; 100 nM plus 50 nM TAT-HIV Pr) | effect on viability of HIV positive cells [5] | effect on viability of HIV positive cells ([5]; listed as TATCasp3MUT)
TAT-HIV Pr: transducible HIV Protease, gene from HXB2R HIV strain cloned into pTAT | 100% | absence | only background levels; also recorded: remained at background levels | only background levels |  |  |  | 
B1 | ~100% |  | only background levels; also recorded: remained at background levels | only background levels | specific cleavage | only background; also recorded: remained at background levels | no effect | negligible effects
